B1: Listeria adhesion protein (LAP) from Listeria innocua F4248, expressed on the surface of Lactobacillus casei (strain LbcLAP^Lin) (natural protein)
chain: MAIKENAAQEVLEVQKVIDRLADNGQKALKAFESYNQEQVDNIVHAMALAGLDQHMPLAKLAVEETGRGLYEDKCIKNIFATEYIWNNIKNNKTVGVINEDTQTGVIEIAEPVGVVAGVTPVTNPTSTTLFKAIIAIKTRNPIIFAFHPSAQRCSSEAAKVVYDAAVAAGAPEHCIQWVEKPSLEATKQLMNHDKVALVLATGGAGMVKSAYSTGKPALGVGPGNVPAYIDKTAKIKRSVNDIILSKSFDQGMICASEQAVIVDKEVAKEVKAEMEANKCYFVKGAEFKKLESYVINPEKGTLNPDVVGKSPAWIANQAGFKVPEDTKILVAEIKGVGDKYPLSHEKLSPVLAFIEAANQAEAFDRCEEMLVYGGLGHSAVIHSTDKEVQKAFGIRMKACRIIVNAPSAQGGIGDIYNGFIPSLTLGCGSYGKNSVSQNVSATNLLNVKRIADRRNNMQWFKLPPKIFFEKYSTQYLQKMEGVERVFIVTDPGMVQFKYVDVVIEHLKKRGNDVAYQVFADVEPDPSDVTVYKGAELMKDFKPDTIIALGGGSAMDAAKGMWLFYEHPEASFFGLKQKFLDIRKRTFKYPKLGGKAKFVAIPTTSGTGSEVTPFAVITDKENNIKYPLADYELTPDVAIVDAQYVTTVPAHITADTGMDVLTHAIESYVSVMASDYTRGLSIRAIELVFENLRESVLTGDPDAREKMHNASALAGMAFANAFLGINHSLAHKIGPEFHIPHGRANAILMPHVIRYNALKPKKHALFPRYESFRADEDYARISRIIGFPAATTEEGVKSLVDEIIKLGKDVGIDMSLKGQNVAKKDLDAVVDTLADRAFMDQCTTANPKQPLVSELKEIYLEAYKGV

Biological target: heat shock protein 60 (Hsp60), surface-expressed on Caco-2 cells (human (endogenous in Caco-2)) (UniProt P10809)
Sequence of UniProt P10809 (P10809 27-573): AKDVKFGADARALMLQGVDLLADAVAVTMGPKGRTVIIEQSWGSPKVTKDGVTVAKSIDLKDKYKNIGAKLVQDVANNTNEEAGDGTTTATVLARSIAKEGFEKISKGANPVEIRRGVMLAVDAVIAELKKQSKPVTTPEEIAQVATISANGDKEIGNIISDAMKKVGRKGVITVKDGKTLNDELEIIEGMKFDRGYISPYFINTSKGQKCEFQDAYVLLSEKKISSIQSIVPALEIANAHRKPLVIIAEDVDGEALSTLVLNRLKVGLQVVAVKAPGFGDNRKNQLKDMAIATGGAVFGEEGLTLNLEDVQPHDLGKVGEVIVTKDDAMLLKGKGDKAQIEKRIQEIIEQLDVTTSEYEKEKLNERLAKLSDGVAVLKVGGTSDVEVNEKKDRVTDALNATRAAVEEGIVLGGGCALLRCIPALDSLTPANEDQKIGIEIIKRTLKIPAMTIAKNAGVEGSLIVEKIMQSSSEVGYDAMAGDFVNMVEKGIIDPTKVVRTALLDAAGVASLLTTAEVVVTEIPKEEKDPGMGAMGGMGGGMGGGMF

Molecule | adhesion of the BLP strain (MOE 10, 1 h) to Hsp60^+ Caco-2 cells (Hsp60 overexpressed), relative to LbcWT [fold] | adhesion of the BLP strain (MOE 10, 1 h) to Hsp60^Vec Caco-2 cells (basal Hsp60), relative to LbcWT [fold]
Listeria adhesion protein (LAP) from Listeria monocytogenes F4244, expressed on the surface of Lactobacillus casei (strain LbcLAP^Lm) (natural protein) | 9 | 4
B1 | 9 | 4

Reference: article PMC7732855
